According to the DeepSol protein solubility set:

Assay: soluble on expression in E. coli; label from the status in PepcDB or PDB records

| Sequence | soluble on expression in E. coli |
| --- | --- |
| MGSDKIHHHHHHMKNFVLDTNVLLYDPQAIFKFEENNIIIPITVIEEVDRFKKDMNETGRNARQVSRYLDDMRKIGSLSSGITLETGGMLRVEMYEEKIMKRLPPELREERGDNRILAVAVKILEENGGAPVVFVTKDTNLRIKADAIGLKAEDYESDKVDIEELYPGFTEIDVAADTVDRFHGQGWVELPGQTFFPNQCVTLRDEANPSHTALGKYRVGDGKITPLIKTGKEGVWSIFPRNREQAFAFDLLLDDSIKLVTLVGKAGTGKTLLAIAAGLHKTAEENVFNRLLVSRPVFPMGRDLGFLPGDIEEKLAPWMQPIFDNVELLLSGHEAEKRHSKGYKELMAMGIMEIEPLTYIRGRSIPNQFMIVDEAQNLTPHEIKTIITRAGEGTKIVLTGDPYQIDNPYVDASSNGLTYVVERFKEQAIAGHVTMTKGERSDLAELAANLL | not soluble |
| MNSNEDIHEERIEVPRTPHQTQPEKDSDRIALRDEISVPEGDEKAYSDEKVEMATTNASSNFGSNESAKDGESIGAFSNPHEALMQSKLREESQSKTILPSDDLSQQLETEESKVEEALKRITSPPLPPRADCIEESASALKSSLPPVLAGNKNDQAPLDRPQLPPRQVVNAETLHLKAPHGNATPSKSPTSAVGNSSSSTPPTLPPRRIEDPLDLAAQKHFLASTFKRNMLFYKSEDNSIKCDLDKNILNLKEDSKKINNNEIPEEVSSFWLKVIGDYQNILINDIETLHFQLSRGIPAAYRLVVWQLVSYAKSKSFDPIYETYLTEMAPFDVQEFENQLKMMDEVPSEYVKRISNVLKAYLLFDPECEFSTDIAYIINMILDVCEEEANAFGLLVRLMKVYGLRLLFLPSASEIDILCYKFDRLVEEFYPEIHNHMVEKGVRSSMFLPGFFTTLFQKKLPTEIQPRIGDMVFLEGIDSIMRILATLLSNSRDHLLKMGFDDMLELLKSGLLDAYIKQNDGTRGDTLLSNECMDKLLQDSMMKVAITPKTMKKYSSEYEEIHRLDNEKEVQYKSITEKNLHLQKHVRKLENDYTSLNREHVTIANELVKNRLNIESVLNENNGYKLQILDLKKKLDSEKKKQVLGVYVPNDLKKDLEETMKKNTQVMDENLKLQDRISELERLIEEIKTANKNGTLFEYSNSKNNPLGAGWSGFKKVFK | soluble |
| AHHHHHHGSSLGGSADDTYLHEIIKKAYEAGIVIVAAAGNEGASSPSYPAAYPEVIAVGATDINDQVPYWSNRQPEVSAPGVDILSTYPDDTYETLSGTSMATPHVSGVVALIQAAYYLKYGKVLPVGTFDDMSTNTVRGILHLAVDDLGDPGWDIYYGYGIIRADKAIQLALF | not soluble |
| MKDPLLNSLIYVSRYYGLANSPEALVNGLPLSDGKLTPFLLPRAAERAGLVAKENRAELEKISSLILPAILVLKGGDSCVLNSINMETREAEVTTLESGMVPISIPLEDLLEQYTGRYFLVKKQFRFDERSPEVLKTKEGHWFWSTLWQSKRIYRD | not soluble |
| MAHHHHHHMASAVVAPPRGIKADPRASPNQGRRNGDGGRVLHAVPEEANKRRREREEAQHGAARYRGRNGQAVAELHGTARVKVNLVRRGTSKRRKGGRVGHLHHKPRRAPRPLAKHICPRALGETRISDGRPRPPQPRSDERHGSEGVVAVGAHVPYGSAPLRRRKHRNEAGRQQVRRVRHVRRLVPRVEGEVKPHVQLQRLTRRNHAHVPTQRGEADELGTLLHSNHVKVTAHRRGRRCRPKASARAAAGRERRRHARSRRSAPPAQVRRIDARRVAQKRSTHVHNRVIPDRSNAVRTRRGGRNDTLALRQHETHRRAAARGDLSVPHHNGAVGPHLHLRRQRVPRRHARRQRHIAVLNSHTLVPRAAVGARHAVHPDTRRQPCSRGV | not soluble |
| MSLDFHGVFPYLVSPVDAEGRVRADVMGRLCDDLIQAGVHGLTPLGSTGEFAYLGTAQREAVVRATIEAAQRRVPVVAGVASTSVADAVAQAKLYEKLGADGILAILEAYFPLKDAQIESYFRAIADAVEIPVVIYTNPQFQRSDLTLDVIARLAEHPRIRYIKDASTNTGRLLSIINRCGDALQVFSASAHIPAAVMLIGGVGWMAGPACIAPRQSVALYELCKAQRWDEALMLQRKLWRVNEAFAKFNLAACIKAGLALQGYDVGDPIPPQAALTAEERKAVEKVLAEIAEGHHHHHH | soluble |
| MQSDHKEKIAILVDVQNVYYTCREAYRSNFDYNQFWYVATQEKEVVSAKAYAIASNDPKQRQFHHILRGVGFEVMLKPYIQRRDGSAKGDWDVGITLDAIEIAPDVDRVILVSGDGDFSLLVERIQQRYNKKVTVYGVPRLTSQTLIDCADNFVAIDDDFLL | soluble |
| MKKLLSIVLGLALSAPVLANEVSFEQYVERLKQQAREEGISERILNEAFRDVEYKPRSVVADKNQPEKKLTLDEYIPRAVPEWKVKQAQSLYEKHYTELQRIGKQYGVQPRFIVALWGVESNFGAFTGNFRVIDALSTLAYEGRREEFFRKETMAALQILEQGHIAPEAMKGSWAGAMGQCQFMPSSFLNFAADGNGDGKKDIWGTRSDVFASTANYLSQSGWDDKYTWGRQVKIPKGFDHALEGRQPEKGKTLQEWSKLGVTRYDGKPLPALSDDIKAWLIMPDDEAGRIYLVYNNYNVLMKWNRSHYFALAVSHLADRIAF | not soluble |
| MNASSAPQQQQQQQQPQQGQAPQQQQQGPPQHQYQQQRPFHGRVQNHMRGSGPFGNSNGYGRYTAPRGDQQHHDSTPLSSTNLYIRGLMPNTNDDLLREMCSKYGNIASTKAIMDKATNNCKGYGFVDFESPQAAAAAVDGLNTEGVQAQMAKLQQQEQDPTNLYIANLPLDFTEQMLETELNKFGMVISTRILRTPDNQSRGVGFARMDSKEKCEVIISALNGGRFDTMSKEGPALLIKQADTGRKSKHSMNNPEMLQRMQYPQVYQSYYGYHPAAVYQQHYDVNSLASQMGGMHVGGGNPQANGGGDMYGAHMYGQNAGGQGGQGVGQGGQGGNQQFYNPNNGRNKKYFQPMNPQ | not soluble |
| MDSETLPESEKYNPGPQDFLLKMPGVNAKNCRSLMHHVKNIAELAALSQDELTSILGNAANAKQLYDFIHTSFAEVVSKGKGKK | soluble |
| MRPPISSGRIGDGGLDSCPEKKEEEKDSTSRLCSDLSDLRIERIGSTPAFQWISVYTKRPPMKQRFHHNIANSRLSHHAEKGKRDGLFISCVASEANLWALVMDAGTGFTSQVYKFSSTFLPKDWIMKQWEKNYYISSIAGANNGSSLVVMSKGTRYIQQSYKTGDSIPLKWMDKKWKEGFHVTSMTTGGSRWGVVMSRNSGFSEQVMEVDFLNPSEDINRRLESGYMITSMAATADQAALILSIPRRKITDEIQETLRTSSFPSSYVKDKWGKNMFITSICYGRTV | soluble |
| MGHHHHHHSHIAFLGPKGSYSHLAARQYAARHFEQFIESGCAKFADIFNQVETGQADYAVVPIENTSSGAINDVYDLLQHTSLSIVGEMTLTIDHCLLVSGTTDLSTINTVYSHPQPFQQCSKFLNRYPHWKIEYTESTSAAMEKVAQAKSPHVAALGSEAGGTLYGLQVLERIEANQRQNFTRFVVLARKAI | soluble |
| MAWDLKVKMLGGNDFLVSVTNSMTVSELKKQIAQKIGVPAFQQRLAHQTAVLQDGLTLSSLGLGPSSTVMLVVQNCSEPLSILVRNERGHSNIYEVFLTQTVDTLKKKVSQREQVHEDQFWLSFEGRPMEDKELLGEYGLKPQCTVIKHLRLRGGGGDQCA | not soluble |
| MGVKRKKMGKVAGFTEWTAEDLEAFRARWPIGTAQRLALELYQWTGARCVDVIRLGPQMVGRDGVLTYVQQKTGNPAHVPWTCPAFGLEEQRADLMRCLPVGSPVYMLTEYGKPRTQKGVSQWFSAAAREAGLESRTAHGLRKYRMNALAEHGASVLVMQSWVGHTTLLEVQEYTRRADRRRVISGGHAAALEHHHHHH | not soluble |
| MPGQQATKHESLLDQLSLKGKVVVVTGASGPKGMGIEAARGCAEMGAAVAITYASRAQGAEENVKELEKTYGIKAKAYKCQVDSYESCEKLVKDVVADFGQIDAFIANAGATADSGILDGSVEAWNHVVQVDLNGTFHCAKAVGHHFKERGTGSLVITASMSGHIANFPQEQTSYNVAKAGCIHMARSLANEWRDFARVNSISPGYIDTGLSDFVPKETQQLWHSMIPMGRDGLAKELKGAYVYFASDASTYTTGADLLIDGGYTTR | soluble |
| MSLSLYQSVRAVANARGGETEWIDWRATAEAAKQARDQGALTLDDAERRAYATDVRDARSRLRTVGGLEFDIPQTIEVQNRHHWIDANIKTFERMLDPIDIATLIDDTNALNGPSGYATRMVNTGSMAAALAFLSGNVLGQYDPQLLSQTTDTIETNENNHELYFVHPNIVDVAAELDVEYPRFRRWIAFHEVAHAAEFGAAPWLRTHIEDRIESGLEALTGGRLDRSAFSDVDIVMTAVEGYAELLMDRAFDKEYADLRAKLDARRGGGGPVAQLFRRLLGLGVKERQYERGAQFFETIADQRGVKAAATVWEDPRYLPDESELDNPQYWIDRVNEGHHHHHH | not soluble |
| MGSDKIHHHHHHMTLSFVTRWRDELPETYTALSPTPLNNARLIWHNTELANTLSIPSSLFKNGAGVWGGEALLPGMSPLAQVYSGHQFGVWAGQLGDGRGILLGEQLLADGTTMDWHLKGAGLTPYSRMGDGRAVLRSTIRESLASEAMHYLGIPTTRALSIVTSDSPVYRETAEPGAMLMRVAPSHLRFGHFEHFYYRRESEKVRQLADFAIRHYWSHLADDEDKYRLWFSDVVARTASLIAQWQTVGFAHGVMNTDNMSLLGLTLDYGPFGFLDDYEPGFICNHSDHQGRYSFDNQPAVALWNLQRLAQTLSPFVAVDALNEALDSYQQVLLTHYGERMRQKLGFMTEQKEDNALLNELFSLMARERSDYTRTFRMLSLTEQHSAASPLRDEFIDRAAFDDWFARYRGRLQQDEVSDSERQQLMQSVNPALVLRNWLAQRAIEAAEKGDMTELHRLHEALRNPFSDRDDDYVSRPPDWGKRLEVSCSS | not soluble |
| MGRAELLEGKMSTQDPSDLWSRSDGEAELLQDLGWYHGNLTRHAAEALLLSNGCDGSYLLRDSNETTGLYSLSVRAKDSVKHFHVEYTGYSFKFGFNEFSSLKDFVKHFANQPLIGSETGTLMVLKHPYPRKVEEPSIYESVRVHTAMQTGRTEDDLVPTAPSLGTKEGYLTKQGGLVKTWKTRWFTLHRNELKYFKDQMSPEPIRILDLTECSAVQFDYSQERVNCFCLVFPFRTFYLCAKTGVEADEWIKILRWKLSQIRKQLNQGEGTIRSRSFIFK | soluble |
| MGSDKIHHHHHHMLKNSAKNFVENIEKKLYLSIKEKTDSITFKLEKVLKAFSDSHLNVQHFASLTGYGHGDLGRDIIDKIFANVLDAEKAAVRLQLVSGTHAITSSLFGVLRPGDGLLSVTGRPYESLEEVIGLRGNGKGSLIEFGIAYEEISLKDDGNIDFLALEKALKIPRKLIFIQRSCGYTWRPSLSIEVIKEICYLCHKIQPNCICFVDNCYGEFVETNEPTSVGADLIAGSLIKNLGGTIVPTGGYIAGKADLVDKACCRLTAPGIGSEGGITFDLNRTILQGLFLAPQMVSEALIGAEIISTSFSELGFKVLPTPASKRTDLIQIVRIGDPKILQIICRSFQEKSPIGSFLDPIPAPMPGYENNLVMAGGTFVDGSTSEFSADAPMKPPFDLFIQGGSHRAHVKIALIHALSNLFQAGLIKLPQND | not soluble |
| SRPRLSQLSVTDVTTSSLRLNWEAPPGAFDSFLLRFGVPSPSTLEPHPRPLLQRELMVPGTRHSAVLRDLRSGTLYSLTLYGLRGPHKADSIQGTARTL | soluble |
| MGSDKIHHHHHHMQRHLVDEFWCINVDSTAWSKVLHRGTRREFKKGEQIVSAGELVTQLRYLESGSVCMKRTTLDGNEKILMHIERSSLFCEVPFFTGDEIHSSFNCHRDAVVYCFSKEVVDDILEMYPCIAKDIIRTLSMKVSVLSNQIASLGLDTLEQRIAKFILLRYNLMNLADADLMTLGTLRMKDVASILGVHRATLYRALKTMEKMRLIKLLNENRLQVLNIEALAALANH | not soluble |
